The experiment has as its target full-length human Bcl-2 protein (human, UniProt P10415 1-239). As to the kind of experiment: NMR; 5 mM DPC micelles, pH 6.0, 310 K.

full-length human Bcl-2 protein, sequence (P10415 other isoform, or with tags, fused parts or gaps): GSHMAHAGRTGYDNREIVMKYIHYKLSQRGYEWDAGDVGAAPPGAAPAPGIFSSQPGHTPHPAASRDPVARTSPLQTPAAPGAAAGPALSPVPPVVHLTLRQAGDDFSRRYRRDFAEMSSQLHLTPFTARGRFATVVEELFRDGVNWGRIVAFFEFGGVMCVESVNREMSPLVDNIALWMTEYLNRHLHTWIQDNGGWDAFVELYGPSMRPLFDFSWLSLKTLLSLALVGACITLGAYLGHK

As for Ac-QPPQDASTKKLSECLRRIGDELDSNMELQRMIADVD-NH2 [36-mer Bax-BH3 peptide from Mus musculus], the equilibrium dissociation constant (Kd) was found to be 143 µM.

For the origin of these results see paper PMC8079415 (2021).
